Target: His-tagged full-length ActA (ActA[1–584Rhis]) (Listeria monocytogenes)
Assay: co-sedimentation

Chain of His-tagged full-length ActA (ActA[1–584Rhis]) (Listeria monocytogenes) (P33379 30-613 limits assumed): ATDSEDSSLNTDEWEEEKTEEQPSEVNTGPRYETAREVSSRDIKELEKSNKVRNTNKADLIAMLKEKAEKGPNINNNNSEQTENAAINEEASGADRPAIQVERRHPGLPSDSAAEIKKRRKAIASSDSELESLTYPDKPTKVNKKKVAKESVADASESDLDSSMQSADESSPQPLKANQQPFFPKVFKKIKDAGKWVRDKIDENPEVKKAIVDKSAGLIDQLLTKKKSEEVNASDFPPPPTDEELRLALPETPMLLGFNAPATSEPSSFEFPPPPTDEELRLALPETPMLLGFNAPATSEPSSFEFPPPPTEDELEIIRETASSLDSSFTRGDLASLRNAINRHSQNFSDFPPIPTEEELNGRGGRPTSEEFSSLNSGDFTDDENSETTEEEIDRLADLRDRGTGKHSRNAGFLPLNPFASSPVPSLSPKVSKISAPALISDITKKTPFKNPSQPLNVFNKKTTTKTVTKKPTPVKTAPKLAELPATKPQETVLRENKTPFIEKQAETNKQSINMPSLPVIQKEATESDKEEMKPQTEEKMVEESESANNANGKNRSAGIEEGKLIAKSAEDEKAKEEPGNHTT

“His-tagged human vasodilator-stimulated phosphoprotein (VASP) (from UniProt P50552 1-380) (natural protein)” gave a percent bound of over 90%.

From publication PMC2173428
